A short description of the data set: yeast display, Sf9 membrane polyspecificity reagent, FACS + sequencing; frameworks hold sequencing errors. Put shortly: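 Genes from sorted yeast were amplified by colony PCR, read by MiSeq 2 × 250 sequencing and filtered on CDR length. These cells carried a synthetic nanobody library in Saccharomyces cerevisiae BJ5465 and were sorted by FACS into low and high (top ~1%) gates on anti-HA and streptavidin fluorescence. Polyreactivity is labelled according to the gate of origin.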
Take “QVQLVESGGGLVQAGGSLRLSCAATRSIFFGYAMGWYRQAPGKEREFVAAITASGVRTYYADSVKGRFTISLDNAKNTVYLQMNSLKPEDTAVYYCAARIGTGVLPGRGANSHMDYWGQGTQVTVSS”: the “polyreactivity (PSR sort gate)” value was “low polyreactivity”. For “QVQLVESGGGLVQAGGSLRLSCAAYGFILDFYTMGWYRQAPGKERELVAAITNGGSTYYADSVKGRFTISRDNAKNTVYLQMNSLKPEDTAVYYCAAYYRSRHNGYDSWGQGTQVTVSS” the value was “low polyreactivity”; for “QVQLVESGGGLVQAGGSLRLSCAAYGFTFASNVMGWYRQAPGKDRELVAAITSGASTNYADSVKGRFTISRDNAKNTVYLQMNSLKPVDTAVYYCAAGRQWYVFYEFDYWGQGTQVTVSS”, “high polyreactivity”; for “QVQLVESGGGLVQAGGSLRLSCAAYGFTFYPYAMGWYRQAPGKEREVVAASNSGGSTYYADSVKGRFTISRDNAKNTVYLQMNSLKPEDTAVYYCSAYGKRGAVAFYYWGQGTQVTVSS”, “high polyreactivity”. Regarding “QVQLVESGGGLVQAGGSLRLSCAAYGGIFYSNGMGWYRQAPGKERELVAAITGGDITDYADSVKGRFTISRDNAKNTVYLQMNSLKPEDTAVYYCAVESYPPDYGPRFGSWGQGTQVTVSS”, the “polyreactivity (PSR sort gate)” value is on record as “low polyreactivity”.

Turning to “QVQLVESGGGLVQAGGSLRLSCAAYGIIFNSYFMGWYRPAPGKERELVAAITGSCGRTYYADSVKGRFTISRDNAKNTVYLQIISLKPEDTAVYYCSATNRGQVYGAWYNSWGQGTQVTVSS”, the “polyreactivity (PSR sort gate)” value is “high polyreactivity”.

As for “QVQLVESGGGLVQAGGSLRLSCAAYGIIFSYNVMGWYRQAPGKEREYVAAITRSGGSTYYADSVKGRFTISRDNAKNTVYLQMNSLKPEDTAVYYCAATTWSGPSRYYDWGQGTQVTVSS”, the “polyreactivity (PSR sort gate)” value is “high polyreactivity”.

In the case of “QVQLVESGGGLVQAGGSLRLSCAAYGIIIGNNAMGCYRQAPGKERELVAAISRRGGSTYYADSVKGRFTISRDNAKNTVYLQMNSLKPEDTAVYYCAADIYRYNSYDYWGQGTQVTVSS”, the “polyreactivity (PSR sort gate)” value is listed as “low polyreactivity”.

In the case of “QVQLVESGGGLVQAGGSLRLSCAAYGITFDANAMGWYRQAPGKERELVARISSGGSTNYADSVKGRFTISRDNAKNTVYLQMNSLKPEDTAVYYCAAERIARPTFDYWGQGTQVTVSS”, the “polyreactivity (PSR sort gate)” value is “low polyreactivity”. For “QVQLVESGGGLVQAGGSLRLSCAAYGITFRVNPMGWYRQAPGKERELVAAISRGGGSTSYADSVMGRFTISRDNAKNTFYLQMNSLKPEDTAVYFCAREPLAYYVARYDYWGQGTQVTVSS” the value was “high polyreactivity”. The value for “QVQLVESGGGLVQAGGSLRLSCAAYGITFYRNAMGWYRQAPGKEMELVAAITWNGGRTYYADSVKGRFTISRDNAKNTVYLQMNSLKPEDTAVYYCAADSGTLNLASYRYYYWGQGTQVTVSS” was “low polyreactivity”; that for “QVQLVESGGGLVQAGGSLRLSCAAYGLTFPYYVMGWYRPAPGKERELVAAISSSGGSTYYADSVKGRFTISRDNAKNTVYLQMNSLKPEDTAVYYCAAVEIYLAYDLPYWSEMDYWGQGTQVTVSS” was “low polyreactivity”; that for “QVQLVESGGGLVQAGGSLRLSCAAYGNIFYVYVMGWYRQAPGKERELVASITSGASTYYADSVKGRFTISRDNAKNTVYLQMNSLKPEDTAVYYCAAEALGGAGDYSTLYIYDYWGQGTQVTVSS” was “low polyreactivity”. The value for “QVQLVESGGGLVQAGGSLRLSCAAYGRIFGWYAMGWYRQAPGKERELVAAISSSTSTYYADSVKGRFTISRDNEKNTVYLQMNSLKPEDTAVYYCNADWYYQRVQYYWYRYDYWGQGTQVTVSS” was “high polyreactivity”; that for “QVQLVESGGGLVQAGGSLRLSCAAYGRIFKYYVMGWYRQAPGKERELVATISSGSGTNYADSVKGRFTISRDNAKNTVYLQMNSLKPEDTAVYYCAARWTPRVRGYNYWGQGTLVTVSS” was “high polyreactivity”.

As to “QVQLVESGGGLVQAGGSLRLSCAAYGRIFSYYAMGWYRQAPGKERELVAASSGNGGSTYYADSVKGRFTISRDHAKNTVYLQMNSLKPEDTAVYYCAAVWWSSDWASLYPYSYDHWGQVTQVTVSS”, the “polyreactivity (PSR sort gate)” value was “low polyreactivity”. With “QVQLVESGGGLVQAGGSLRLSCAAYGRIIRWYARGWYRPSPGKERALVAAISWSGGSTYYADSVKGRFTISRDNAKNTVYLQLNSLKPEDTAVYYCNTVYAEYDYSTVDYWGQGTQVTVSS”, the “polyreactivity (PSR sort gate)” value was “high polyreactivity”.

For the sequence “QVQLVESGGGLVQAGGSLRLSCAAYGRTFGRYAMGCYRPAPGKERELVAAITVGGGSKYYADSVKGRFTISRDNAKNTVYLQMNSLKPEDTAVYYCNALHTYTYRYDYYYWGQGTQVTVSS”, the “polyreactivity (PSR sort gate)” value is recorded as “high polyreactivity”. In the case of “QVQLVESGGGLVQAGGSLRLSCAAYGRTFNPYAMGWYRQAPGKERELVARITWSGGRTYYADSVKGRFTISRDNAKNTVYLQMNSLKPEDTAVYYCAARYSKYLYGRFESWGQGTQVTVSS”, the “polyreactivity (PSR sort gate)” value was “high polyreactivity”. With “QVQLVESGGGLVQAGGSLRLSCAAYGRTFTTNAMGWYRQAPGKERELVAAISRLGGSTYYADSVKGRFTISRDNAKNTVYLQMNSLKPEDTAVYYCYAHLWIRGYDYWGQGTQVTVSS”, the “polyreactivity (PSR sort gate)” value is listed as “high polyreactivity”.

As for “QVQLVESGGGLVQAGGSLRLSCAAYGRTFTWYSMGWYRQAPGKERELVAAISKSGGSTYYSDSVKGRFTISRDNAKITVYLQMNSLKPEDTAVYYCNAEFYGYFLGYGYWGQGTQVSVSS”, the “polyreactivity (PSR sort gate)” value was “low polyreactivity”. The value for “QVQLVESGGGLVQAGGSLRLSCAAYGRTLGYYAMGWYRPAPGQERELVAAITGSDGSTYADSVKGRFTISRDNAKNTVYLQMNSLKPEDTAVYYCNSKNEHGSLGFDYWGQGTQVTVSS” was “high polyreactivity”. The value for “QVQLVESGGGLVQAGGSLRLSCAAYGSIFDSNTMGWYRQAPGKERELVAGISTGGSTNYADSVKGRFTISRDNAKNTVYLQMNSQKPEDTAVYYCNADLGSSYDWGQGTQVTVSS” was “low polyreactivity”.

Turning to “QVQLVESGGGLVQAGGSLRLSCAAYGSIFYSYAMGWYRQAPGKERELVASIRIGSSTNYADSVKGRFTISRDNAKNTVYLQMNSLKPEDSAVYYCAARRFYKYYYGSDYWGQGTQVTVSS”, the “polyreactivity (PSR sort gate)” value was “high polyreactivity”. As to “QVQLVESGGGLVQAGGSLRLSCAAYGSIIRRYAMGWYRQAPGKERELVATISSGSRTYYADSVKGRFTISRDNAKNTVYLQMNSLKPEDTAVYYCNARSRRVGLTLYNYWGQGTQVTVSS”, the “polyreactivity (PSR sort gate)” value is reported as “high polyreactivity”.

As to “QVQLVESGGGLVQAGGSLRLSCAAYGSIIVRYAMGWYGQAPGKVRELVPTITFRDTSTYYADSVKGRFTSSRDNAKNTVYLQMNSLKPEDSAVYYCNAHIPTNRSYVPAVRGEDDYWGQGTQVTVSS”, the “polyreactivity (PSR sort gate)” value is given as “low polyreactivity”. The value for “QVQLVESGGGLVQAGGSLRLSCAAYGSIRNFYAMGWNRKAPGKERELVPTISSGGNTHYADSVKGRFTISRDNAKNTVYFQMTSLKPEDTAVYYCNKVTIGGFFWYRAYDYWGQGTQVTVSS” was “low polyreactivity”. For “QVQLVESGGGLVQAGGSLRLSCAAYGSTFGDYAMGWYRQAPGKERELVAAITIGGITTYADSVKGRFTISRDNAKNTVYLQMNSLKPEDTAVYYCADAERGDWDDYWGQGTQVTVSS” the value was “low polyreactivity”; for “QVQLVESGGGLVQAGGSLRLSCAAYGSTFGWYTMGWYRQAPGKERELVATISYGGGITNYADSVKGRFTISRDNAKITVYLQMNSLKPEDTADYDCAVDNTGRSWPYDYWGQGTQVTVSS”, “low polyreactivity”; for “QVQLVESGGGLVQAGGSLRLSCAAYGSTFNYKAMAWYRQAQGKERELVATITTSGGSTYYADSVKGRFTISRDNAKNTVYLQMNSLKPEDTAVYYCAARYPWSVYRIYGAHYDYWGQGTLVTVSS”, “low polyreactivity”.

For the sequence “QVQLVESGGGLVQAGGSLRLSCAAYGSTLATNAMGWYRPAPGKERELVAYADSVKGRFTISRDNAKNTVYLQMNSLKPEDTAVYYCAKDALVIDGGGGYDYWGQGTQVTVSS”, the “polyreactivity (PSR sort gate)” value was “low polyreactivity”.

“QVQLVESGGGLVQAGGSLRLSCAAYGSTLLTYTMGWYRQAPGKERELVASITTSGGSTYYADSVKGRFTISRDNAKNTVYLQMNSLKPEDTAVYYWGQGTQVTVSS”: the “polyreactivity (PSR sort gate)” value was “low polyreactivity”. For “QVQLVESGGGLVQAGGSLRLSCAAYGYTFRGYAMGRYRQAPGKEREFVAAINWSDGSTYYADSVKGRFTISRDNAKNTVYLQMNSLKPEDTAVYYCNADQYYRFPDNYLGQGTQVTVSS” the value was “low polyreactivity”. Consider “QVQLVESGGGLVQAGGSLRLSCAAYYAMGWYRQAPVKERELVAAISSTGRTNYADSVKGRFTISRDNAKNTVYLQMNSLKPEDTAVYYCAAEWHYIYAYDYWGQGTQVTVSS”, for which the “polyreactivity (PSR sort gate)” value is given as “low polyreactivity”. For “QVQLVESGGGLVQAGGSLRLSCADSARTFYYNTKGWYRQAPGKERELVASISGSGGRTYYADSVKGRFTISRDNAKNTVYLQMNSLKPEDTAVYYFAAGSIRYRFPFGYDYWGQGTQVTLSS” the value was “high polyreactivity”.

“QVQLVESGGGLVQAGGSLRLSCADSGFIFAYYVMGWYRQAPGKERELVAAISRGGGSTYYADSVKGRFTISRDNAKYTVYLQMNSLKPEDTAVYYCATYSHALRYDYWGQGTQVTVSS”: the “polyreactivity (PSR sort gate)” value was “high polyreactivity”.

“QVQLVESGGGLVQAGGSLRLSCADSGFIFPNYGMGSYRQAPGKERELVAYADSVKGRFTISRDNAKNTVYLQMNSLKPEDTAVYYCNADPPYTRWADYWHGGGYWGQGTQVTVSS”: the “polyreactivity (PSR sort gate)” value is recorded as “low polyreactivity”.

In the case of “QVQLVESGGGLVQAGGSLRLSCADSGFIFSAHAMGGYSQAPGKDRELVAAISRTGGSTYYADSVKGRFTISRDNAKNTVYLQMNSLKPEETAGYYGAAYIRYGGLAYDSNYWGQGTQVTVSS”, the “polyreactivity (PSR sort gate)” value was “high polyreactivity”. As for “QVQLVESGGGLVQAGGSLRLSCADSGFIFVDYVMGWYRQSPGKERELVASISASGGTTYYADSVKGRLTISLDNAKNTVYLQMNSLKPEDTAVYYCNARWSPVNLRYGREGDYWGQGTQVTVSS”, the “polyreactivity (PSR sort gate)” value is “high polyreactivity”. For “QVQLVESGGGLVQAGGSLRLSCADSGFIFVVKAMGWYRQAPGKEREIVAVISSSTGSTYYADSVKGRFTISRDNAKNTVYLQLNSLKPEDTAVYSCAAASRRRRPLKRMYYWGQGTQVTVSS”, the “polyreactivity (PSR sort gate)” value is “low polyreactivity”. Take “QVQLVESGGGLVQAGGSLRLSCADSGFIFWYYAMGWYRQAPGKERELVAAISWSGDSTYYADSVKWRFTISRDTANNTVYLQMNSLKPEDTAVYYCAVYDELDVFYNGYDYWGQGTQVTVSS”: the “polyreactivity (PSR sort gate)” value is “high polyreactivity”.

The values above are taken from the nanobody polyreactivity screen of Harvey et al. (2022).
